# Measurements published in patent US20110151450.
# Residue numbers refer to the chain shown, from its start.
# How the values were obtained:
# Test in all cases: cleavage_in_vitro
# [1] = test system: T1, BsmAI-WT (Bacillus stearothermophilus); conditions: NEB4, relative activity 100%
# T1 sequence: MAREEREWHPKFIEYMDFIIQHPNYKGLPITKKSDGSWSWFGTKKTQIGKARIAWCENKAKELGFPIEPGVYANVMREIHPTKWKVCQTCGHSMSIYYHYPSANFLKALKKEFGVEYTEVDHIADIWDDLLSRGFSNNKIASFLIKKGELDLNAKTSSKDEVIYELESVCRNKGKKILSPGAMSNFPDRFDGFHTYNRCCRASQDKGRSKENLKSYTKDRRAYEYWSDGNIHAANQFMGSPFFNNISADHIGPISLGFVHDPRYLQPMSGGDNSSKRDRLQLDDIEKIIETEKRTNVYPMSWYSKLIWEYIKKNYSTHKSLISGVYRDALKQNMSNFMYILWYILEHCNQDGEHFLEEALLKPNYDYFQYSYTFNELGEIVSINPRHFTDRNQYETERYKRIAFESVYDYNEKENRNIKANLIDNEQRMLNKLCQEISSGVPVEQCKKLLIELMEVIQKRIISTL
# [2] = test system: T2, BsmAI-HF N212A (Bacillus stearothermophilus); conditions: NEB4, relative activity 100%
# T2 sequence: T1 sequence with N212A
# [3] = test system: T3, BsmBI-WT (Bacillus stearothermophilus); conditions: NEB4, relative activity 25%
# T3 sequence: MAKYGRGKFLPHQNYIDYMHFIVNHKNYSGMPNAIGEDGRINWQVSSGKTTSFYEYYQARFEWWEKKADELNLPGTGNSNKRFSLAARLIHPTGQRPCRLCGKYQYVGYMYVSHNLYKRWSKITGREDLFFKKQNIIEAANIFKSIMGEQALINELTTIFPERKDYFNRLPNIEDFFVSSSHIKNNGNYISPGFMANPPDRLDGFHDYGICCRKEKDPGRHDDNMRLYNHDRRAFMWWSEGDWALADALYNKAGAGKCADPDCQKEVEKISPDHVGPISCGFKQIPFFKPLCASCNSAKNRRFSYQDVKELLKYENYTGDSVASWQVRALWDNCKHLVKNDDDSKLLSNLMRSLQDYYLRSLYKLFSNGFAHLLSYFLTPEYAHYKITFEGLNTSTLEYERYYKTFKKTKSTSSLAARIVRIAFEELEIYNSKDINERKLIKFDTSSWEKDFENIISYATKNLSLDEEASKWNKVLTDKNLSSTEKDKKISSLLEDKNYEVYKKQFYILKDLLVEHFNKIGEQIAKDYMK
# [4] = test system: T4, BsmBI-HF W238A (Bacillus stearothermophilus); conditions: NEB4, relative activity 100%
# T4 sequence: T3 sequence with W238A
# [5] = test system: T5, BstXI-HF N65T (Bacillus stearothermophilus); conditions: NEB4, relative activity 100%
# T5 sequence: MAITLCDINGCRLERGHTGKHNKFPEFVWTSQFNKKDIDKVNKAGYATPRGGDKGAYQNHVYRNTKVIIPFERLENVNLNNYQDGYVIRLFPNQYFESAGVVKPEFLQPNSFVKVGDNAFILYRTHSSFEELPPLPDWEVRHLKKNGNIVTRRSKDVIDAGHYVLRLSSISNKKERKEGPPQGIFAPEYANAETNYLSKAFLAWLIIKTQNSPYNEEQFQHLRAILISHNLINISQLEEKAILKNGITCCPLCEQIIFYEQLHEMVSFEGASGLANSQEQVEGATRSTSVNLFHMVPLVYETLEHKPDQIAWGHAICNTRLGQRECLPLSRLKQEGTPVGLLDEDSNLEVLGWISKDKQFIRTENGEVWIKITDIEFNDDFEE
# [6] = test system: T6, BstXI-WT (Bacillus stearothermophilus); conditions: NEB4, relative activity 100%
# T6 sequence: T5 sequence with T65N
# [7] = test system: T7, DraIII-WT (Deinococcus radiophilus); conditions: NEB4, 37 C 1 h, relative activity 50%
# T7 sequence: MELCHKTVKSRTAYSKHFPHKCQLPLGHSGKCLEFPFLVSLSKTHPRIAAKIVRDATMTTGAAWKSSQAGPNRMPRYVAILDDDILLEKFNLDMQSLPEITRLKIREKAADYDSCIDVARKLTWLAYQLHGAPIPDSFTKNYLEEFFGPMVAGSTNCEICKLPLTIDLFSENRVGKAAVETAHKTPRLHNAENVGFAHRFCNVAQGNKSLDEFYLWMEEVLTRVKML
# [8] = test system: T8, DraIII-HF T181A (Deinococcus radiophilus); conditions: NEB4, 37 C 1 h, relative activity 100%; Table 1 gives >=2000
# T8 sequence: T7 sequence with T181A
# [9] = target: T9, HindIII-WT (Haemophilus influenzae) (UniProt P43870); conditions: NEB4, relative activity 50%
# T9 sequence: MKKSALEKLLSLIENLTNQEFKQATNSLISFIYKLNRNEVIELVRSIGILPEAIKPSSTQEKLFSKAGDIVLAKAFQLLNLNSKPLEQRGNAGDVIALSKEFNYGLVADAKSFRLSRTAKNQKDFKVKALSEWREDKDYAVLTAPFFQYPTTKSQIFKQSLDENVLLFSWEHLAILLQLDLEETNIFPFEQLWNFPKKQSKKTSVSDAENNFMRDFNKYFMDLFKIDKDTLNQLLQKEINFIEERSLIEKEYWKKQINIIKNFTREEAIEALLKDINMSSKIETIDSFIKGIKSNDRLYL
# [10] = target: T10, SfiI-HF R114A (Streptomyces fimbriatus) (UniProt O52512); conditions: NEB4, relative activity 100%
# T10 sequence: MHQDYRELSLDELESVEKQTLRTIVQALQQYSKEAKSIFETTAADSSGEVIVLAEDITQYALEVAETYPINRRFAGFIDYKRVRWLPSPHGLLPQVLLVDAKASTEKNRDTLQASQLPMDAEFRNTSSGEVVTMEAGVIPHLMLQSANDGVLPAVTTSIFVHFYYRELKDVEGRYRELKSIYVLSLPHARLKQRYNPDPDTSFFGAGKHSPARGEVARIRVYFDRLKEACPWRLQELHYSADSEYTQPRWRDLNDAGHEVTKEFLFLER
# [11] = test system: T11, PspGI-WT (Pyrococcus species); conditions: NEB4, relative activity 100%
# T11 sequence: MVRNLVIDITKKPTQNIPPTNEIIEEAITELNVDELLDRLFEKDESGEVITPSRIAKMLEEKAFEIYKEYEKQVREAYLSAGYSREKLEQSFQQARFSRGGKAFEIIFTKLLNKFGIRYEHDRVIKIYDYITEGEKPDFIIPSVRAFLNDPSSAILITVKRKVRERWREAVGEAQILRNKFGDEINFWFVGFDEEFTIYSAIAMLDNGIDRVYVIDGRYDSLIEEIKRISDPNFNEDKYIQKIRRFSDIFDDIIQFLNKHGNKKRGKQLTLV
# [12] = target: T12, SfiI-WT (Streptomyces fimbriatus) (UniProt O52512); conditions: NEB4, relative activity 25%
# T12 sequence: T10 sequence with A114R
# [13] = test system: T13, PspGI-HF R75A (Pyrococcus species); conditions: NEB4, relative activity 100%
# T13 sequence: T11 sequence with R75A
substance,measurement,setting,value
FX174 DNA,activity (fidelity index),[1],250
same,activity (fidelity index),[2],> 4000
"lambda DNA, BsmBI sites",activity (fidelity index),[3],4
same,activity (fidelity index),[4],250
"lambda DNA, BstXI sites",activity (fidelity index),[5],> 1000
same,activity (fidelity index),[6],32
"lambda DNA, DraIII sites",activity (fidelity index),[7],0.5
same,activity (fidelity index),[8],> 64000
"lambda DNA, HindIII sites",activity (fidelity index),[9],32
pBC4 plasmid,activity (fidelity index),[10],> 8000
same,activity (fidelity index),[11],1
same,activity (fidelity index),[12],64
same,activity (fidelity index),[13],> 4000
